Assay [1] concerns the target T1, ALEXA FLUOR 488-labeled mouse GAC D391K (constitutive dimer mutant) (mouse, UniProt D3Z7P3 72-555, ALEXA FLUOR 488 succinimidyl ester covalently attached to a lysine amino group within the glutaminase domain (exact residue not given)).
T1 sequence: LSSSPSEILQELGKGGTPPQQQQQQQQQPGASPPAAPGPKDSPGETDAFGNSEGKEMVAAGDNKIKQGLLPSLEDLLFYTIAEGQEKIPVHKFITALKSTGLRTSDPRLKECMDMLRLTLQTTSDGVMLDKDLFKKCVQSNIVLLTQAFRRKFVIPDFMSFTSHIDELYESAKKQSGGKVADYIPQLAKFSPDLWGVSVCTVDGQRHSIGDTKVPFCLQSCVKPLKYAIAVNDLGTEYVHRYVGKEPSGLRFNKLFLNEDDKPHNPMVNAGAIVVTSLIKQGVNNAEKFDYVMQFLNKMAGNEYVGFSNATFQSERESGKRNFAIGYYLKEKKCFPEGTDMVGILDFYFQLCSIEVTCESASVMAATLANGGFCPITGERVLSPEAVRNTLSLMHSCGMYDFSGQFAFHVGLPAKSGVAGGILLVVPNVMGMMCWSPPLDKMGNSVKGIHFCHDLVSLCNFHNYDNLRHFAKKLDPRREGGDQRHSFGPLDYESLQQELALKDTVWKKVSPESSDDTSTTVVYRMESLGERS
Put plainly: FRET: 5 nM 488-D391K-GAC titrated with QSY 9-D391K-GAC, fit to a simple ligand binding equation; monomer-monomer association to a dimer. The source says:
FIGS. 10A-B illustrate measuring of the monomer-monomer binding affinity. […] In FIG. 10B, FRET values from FIG. 10A were plotted in a sigma plot and fit to non-linear regression simple ligand binding equation (line).

Assay [2] has as its target T2, ALEXA FLUOR 488-labeled wild type mouse GAC (glutaminase C, residues 72-603) (mouse, UniProt D3Z7P3 72-555, ALEXA FLUOR 488 succinimidyl ester covalently attached to a lysine amino group within the glutaminase domain (exact residue not given)).
T2 construct: Recombinant from pET23a with an N-terminal His-tag and thrombin site; The tag was cleaved with thrombin; The oligomeric state (monomer/dimer/tetramer) depends on concentration
T2 sequence: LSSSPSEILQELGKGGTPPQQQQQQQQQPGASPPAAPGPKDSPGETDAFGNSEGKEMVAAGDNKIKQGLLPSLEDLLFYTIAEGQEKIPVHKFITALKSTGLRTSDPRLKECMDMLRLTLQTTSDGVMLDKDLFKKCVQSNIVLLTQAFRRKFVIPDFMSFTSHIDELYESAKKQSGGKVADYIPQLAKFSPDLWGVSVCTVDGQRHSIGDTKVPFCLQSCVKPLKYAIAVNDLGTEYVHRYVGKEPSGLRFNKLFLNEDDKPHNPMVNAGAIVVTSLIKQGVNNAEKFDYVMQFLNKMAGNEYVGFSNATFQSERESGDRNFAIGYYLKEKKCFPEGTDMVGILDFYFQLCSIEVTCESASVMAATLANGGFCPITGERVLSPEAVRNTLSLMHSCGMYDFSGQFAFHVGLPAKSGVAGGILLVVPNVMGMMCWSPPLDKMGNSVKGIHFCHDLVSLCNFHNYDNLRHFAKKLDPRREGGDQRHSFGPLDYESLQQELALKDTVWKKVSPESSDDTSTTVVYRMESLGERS
The assay is described as follows: FRET time course: 200 nM QSY 9-labeled GAC added to 20 nM 488-WT-GAC. The method, then: Upon elution, light scattering data was collected and then used to calculate the molecular weight and polydispersity for the species eluted (right axis). Reference lines for the molecular weights of the monomer, dimer, and tetramer forms of GAC are included at 58 kD, 116 kD, and 230 kD respectively. […] In FIG. 4F, WT GAC and GAC mutants were titrated and added to an assay of 20 mM glutamine in the absence of phosphate to show no concentration dependent activation was observed of purified GAC mutants.
Fluorescence experiments were performed using a Varian Carry Eclipse Fluorometer in the counting mode. Excitation and emission wavelengths were 490 and 520 nm, respectively. Experiments were all prepared as one-mL samples and stirred continuously at 20° C. in 50 mM Tris-Acetate pH 8.5, 0.1 mM ethylenediaminetetraacetic acid (EDTA). […] Both BPTES and 968 were prepared in DMSO, and appropriate dilutions were made so that less than 2% (v/v) DMSO was added to an experimental sample.

B1: QSY 9-labeled mouse GAC D391K (constitutive dimer mutant) (enzyme)
chain: LSSSPSEILQELGKGGTPPQQQQQQQQQPGASPPAAPGPKDSPGETDAFGNSEGKEMVAAGDNKIKQGLLPSLEDLLFYTIAEGQEKIPVHKFITALKSTGLRTSDPRLKECMDMLRLTLQTTSDGVMLDKDLFKKCVQSNIVLLTQAFRRKFVIPDFMSFTSHIDELYESAKKQSGGKVADYIPQLAKFSPDLWGVSVCTVDGQRHSIGDTKVPFCLQSCVKPLKYAIAVNDLGTEYVHRYVGKEPSGLRFNKLFLNEDDKPHNPMVNAGAIVVTSLIKQGVNNAEKFDYVMQFLNKMAGNEYVGFSNATFQSERESGKRNFAIGYYLKEKKCFPEGTDMVGILDFYFQLCSIEVTCESASVMAATLANGGFCPITGERVLSPEAVRNTLSLMHSCGMYDFSGQFAFHVGLPAKSGVAGGILLVVPNVMGMMCWSPPLDKMGNSVKGIHFCHDLVSLCNFHNYDNLRHFAKKLDPRREGGDQRHSFGPLDYESLQQELALKDTVWKKVSPESSDDTSTTVVYRMESLGERS
modifications: QSY 9 succinimidyl ester covalently attached to a lysine amino group (exact residue not given)
notes: also called QSY 9-D391K-GAC; QSY 9-GAC (D391K) dimer mutant
The Kd is the concentration at which binding is half-saturated. Molecule B1 had a dissociation constant Kd in assay [1] of 2.5 nM.

B2: QSY 9-labeled mouse GAC K316E/D391K/R459E (constitutive monomer mutant) (enzyme)
chain: LSSSPSEILQELGKGGTPPQQQQQQQQQPGASPPAAPGPKDSPGETDAFGNSEGKEMVAAGDNKIKQGLLPSLEDLLFYTIAEGQEKIPVHKFITALKSTGLRTSDPRLKECMDMLRLTLQTTSDGVMLDKDLFKKCVQSNIVLLTQAFRRKFVIPDFMSFTSHIDELYESAKKQSGGKVADYIPQLAKFSPDLWGVSVCTVDGQRHSIGDTKVPFCLQSCVKPLKYAIAVNDLGTEYVHRYVGEEPSGLRFNKLFLNEDDKPHNPMVNAGAIVVTSLIKQGVNNAEKFDYVMQFLNKMAGNEYVGFSNATFQSERESGKRNFAIGYYLKEKKCFPEGTDMVGILDFYFQLCSIEVTCESASVMAATLANGGFCPITGERVLSPEAVENTLSLMHSCGMYDFSGQFAFHVGLPAKSGVAGGILLVVPNVMGMMCWSPPLDKMGNSVKGIHFCHDLVSLCNFHNYDNLRHFAKKLDPRREGGDQRHSFGPLDYESLQQELALKDTVWKKVSPESSDDTSTTVVYRMESLGERS
modifications: QSY 9 succinimidyl ester covalently attached to a lysine amino group (exact residue not given)
notes: also called QSY 9-K316E-D391K-R459E; QSY 9-GAC (K316E, D391K, R459E) monomer mutant
On to B2, for which the binding result in assay [2] was “no binding (tested: 200 nM)”.

For the origin of these results see US20160002619A1 (CORNELL UNIVERSITY, published 2016).
